Measured values as given in patent US20100240080A1.

Legend:
[1] = target: Abl 1 substrate, SEQ ID NO: 3 (…), modified with 7-hydroxycoumarin and 5-FAM; assay: cell-based or functional assay
[2] = system: T1, SEQ ID NO: 100 (RGGLFS*TTPGGTK), labelled phosphopeptide
T1 sequence: RGGLFSTTPGGTK

[3] = system: T2, SEQ ID NO: 110 (RRRQFS*LRRKAK), labelled phosphopeptide
T2 sequence: RRRQFSLRRKAK

[4] = system: T3, SEQ ID NO: 47 (ALRRFSLGEK), modified as described
T3 sequence: ALRRFSLGEK

[5] = system: T4, SEQ ID NO: 109 (ARPRAFS*VGK), labelled phosphopeptide
T4 sequence: ARPRAFSVGK

[6] = system: T5, Akt 1 substrate, SEQ ID NO: 59 (ARPRAFSVGK), modified with 7-hydroxycoumarin and 5-FAM
T5 sequence: ARPRAFSVGK

[7] = system: T6, SEQ ID NO: 103 (GDQDYLS*LDK), labelled phosphopeptide
T6 sequence: GDQDYLSLDK

[8] = system: T7, SEQ ID NO: 113 (RPRTFSS*LAEGK), labelled phosphopeptide
T7 sequence: RPRTFSSLAEGK

[9] = target: Akt 1 substrate, SEQ ID NO: 59 (…), modified with 7-hydroxycoumarin and 5-FAM; assay: cell-based or functional assay
[10] = target: T8, SEQ ID NO: 31 (EEEIY*GVIEK), labelled phosphopeptide
T8 chain: EEEIYGVIEK

## Abl 1 kinase (from UniProt P00519 1-1130) (enzyme)
[1]
  % of substrate phosphorylated in the 0% inhibition control (1.5 ng Abl 1/well, 10 µM ATP): 30%

## PP2B
[2]
  phosphatase substrate screen (dephosphorylation, FRET/chymotrypsin read-out): SEQ ID NOs: 100 and 110 were substrates of PP2B
[3]
  phosphatase substrate screen (dephosphorylation, FRET/chymotrypsin read-out): SEQ ID NOs: 100 and 110 were substrates of PP2B

## PKA
[4]
  % phosphorylation by PKA (kinase titration, FRET/chymotrypsin read-out): SEQ ID NO: 47 modified as described, is the best substrate for the kinase because it yielded maximal phosphorylation even at low kinase concentrations

## PP2C
[5]
  phosphatase substrate screen (dephosphorylation, FRET/chymotrypsin read-out): SEQ ID NOs: 100, 109, and 110 were substrates of PP2C
[2]
  phosphatase substrate screen (dephosphorylation, FRET/chymotrypsin read-out): SEQ ID NOs: 100, 109, and 110 were substrates of PP2C
[3]
  phosphatase substrate screen (dephosphorylation, FRET/chymotrypsin read-out): SEQ ID NOs: 100, 109, and 110 were substrates of PP2C

## Akt 1 kinase
[6]
  % Phosphorylation at 5.0 ng Akt 1 kinase per well: 8%
  % Phosphorylation at 10.0 ng Akt 1 kinase per well: 12%
  % Phosphorylation at 25.0 ng Akt 1 kinase per well: 20%
  % Phosphorylation at 37.5 ng Akt 1 kinase per well: 28%
  % Phosphorylation at 42.0 ng Akt 1 kinase per well: 30%
  % Phosphorylation at 50.0 ng Akt 1 kinase per well: 33%
  % Phosphorylation at 75.0 ng Akt 1 kinase per well: 38%
  % Phosphorylation at 100.0 ng Akt 1 kinase per well: 43%
  % Phosphorylation at 150.0 ng Akt 1 kinase per well: 50%

## PP2A
[5]
  phosphatase substrate screen (dephosphorylation, FRET/chymotrypsin read-out): SEQ ID NOs: 103, 109, 110, and 113 were substrates of PP2A
[7]
  phosphatase substrate screen (dephosphorylation, FRET/chymotrypsin read-out): SEQ ID NOs: 103, 109, 110, and 113 were substrates of PP2A
[8]
  phosphatase substrate screen (dephosphorylation, FRET/chymotrypsin read-out): SEQ ID NOs: 103, 109, 110, and 113 were substrates of PP2A
[3]
  phosphatase substrate screen (dephosphorylation, FRET/chymotrypsin read-out): SEQ ID NOs: 103, 109, 110, and 113 were substrates of PP2A

## Akt 1 kinase (from UniProt P31749 1-480) (enzyme)
[9]
  % of substrate phosphorylated in the 0% inhibition control (42 ng Akt 1/well, 10.5 µM ATP): 30%

B1: PTP1B (protein)
chain: MEMEKEFEQIDKSGSWAAIYQDIRHEASDFPCRVAKLPKNKNRNRYRDVSPFDHSRIKLHQEDNDYINASLIKMEEAQRSYILTQGPLPNTCGHFWEMVWEQKSRGVVMLNRVMEKGSLKCAQYWPQKEEKEMIFEDTNLKLTLISEDIKSYYTVRQLELENLTTQETREILHFHYTTWPDFGVPESPASFLNFLFKVRESGSLSPEHGPVVVHCSAGIGRSGTFCLADTCLLLMDKRKDPSSVDIKKVLLEMRKFRMGLIQTADQLRFSYLAVIEGAKFIMGDSSVQDQWKELSHEDLEPPPEHIPPPPRPPKRILEPHN
[10]
  phosphatase substrate screen (dephosphorylation, FRET/chymotrypsin read-out): SEQ ID NO: 31 was a substrate for both PTP1B and LAR

B2: LAR (protein)
chain: KRKRTHSPSSKDEQSIGLKDSLLAHSSDPVEMRRLNYQTPGMRDHPPIPITDLADNIERLKANDGLKFSQEYESIDPGQQFTWENSNLEVNKPKNRYANVIAYDHSRVILTSIDGVPGSDYINANYIDGYRKQNAYIATQGPLPETMGDFWRMVWEQRTATVVMMTRLEEKSRVKCDQYWPARGTETCGLIQVTLLDTVELATYTVRTFALHKSGSSEKRELRQFQFMAWPDHGVPEYPTPILAFLRRVKACNPLDAGPMVVHCSAGVGRTGCFIVIDAMLERMKHEKTVDIYGHVTCMRSQRNYMVQTEDQYVFIHEALLEAATCGHTEVPARNLYAH
[10]
  phosphatase substrate screen (dephosphorylation, FRET/chymotrypsin read-out): SEQ ID NO: 31 was a substrate for both PTP1B and LAR
